PMC6168553 (Nature Communications, 2018)

B1: RIP2CARD (residues 431-540), wild type, HIS-MBP tag cleaved (domain or fragment, human, UniProt O43353 431-540, looked up)
chain: LQPGIAQQWIQSKREDIVNQMTEACLNQSLDALLSRDLIMKEDYELVSTKPTRTSKVRQLLDTTDIQGEEFAKVIVQKLKDNKQMGLQPYPEILVVSRSPSLNLLQNKSM
notes: RIP2 CARD domain, human, residues 431-540; The atomic model of the filament comprises residues P433 to Q518; also called RIP2CARD filament; NOD2CARDS^s-WT; source: E. coli Rosetta 2, purified (amylose resin, Superose6), HIS-MBP cleaved by P3C, Ni-NTA, dialysis; not shown: His, N-terminal, cleaved; MBP, N-terminal, cleaved
B2: RIP2CARD (431-540) T452A, HIS-MBP tag cleaved (domain or fragment, human, UniProt O43353 431-540, looked up)
chain: LQPGIAQQWIQSKREDIVNQMAEACLNQSLDALLSRDLIMKEDYELVSTKPTRTSKVRQLLDTTDIQGEEFAKVIVQKLKDNKQMGLQPYPEILVVSRSPSLNLLQNKSM
notes: RIP2 CARD domain, human, residues 431-540; source: E. coli Rosetta 2, co-purified with NOD2CARDS^s on amylose resin, tags cleaved by proteases; not shown: His, N-terminal, cleaved; MBP, N-terminal, cleaved
B3: RIP2CARD (431-540) T452K, HIS-MBP tag cleaved (domain or fragment, human, UniProt O43353 431-540, looked up)
chain: LQPGIAQQWIQSKREDIVNQMKEACLNQSLDALLSRDLIMKEDYELVSTKPTRTSKVRQLLDTTDIQGEEFAKVIVQKLKDNKQMGLQPYPEILVVSRSPSLNLLQNKSM
notes: RIP2 CARD domain, human, residues 431-540; also called RIP2CARD-T452K; NOD2CARDS^s-T452K; source: E. coli Rosetta 2, co-purified with NOD2CARDS^s on amylose resin, tags cleaved by proteases; not shown: His, N-terminal, cleaved; MBP, N-terminal, cleaved
B4: RIP2CARD (431-540) C455S, HIS-MBP tag cleaved (domain or fragment, human, UniProt O43353 431-540, looked up)
chain: LQPGIAQQWIQSKREDIVNQMTEASLNQSLDALLSRDLIMKEDYELVSTKPTRTSKVRQLLDTTDIQGEEFAKVIVQKLKDNKQMGLQPYPEILVVSRSPSLNLLQNKSM
notes: RIP2 CARD domain, human, residues 431-540; also called RIP2CARD-C455S; NOD2CARDS^s-C455S; source: E. coli Rosetta 2, co-purified with NOD2CARDS^s on amylose resin, tags cleaved by proteases; not shown: His, N-terminal, cleaved; MBP, N-terminal, cleaved
B5: RIP2CARD (431-540) C455A, HIS-MBP tag cleaved (domain or fragment, human, UniProt O43353 431-540, looked up)
chain: LQPGIAQQWIQSKREDIVNQMTEAALNQSLDALLSRDLIMKEDYELVSTKPTRTSKVRQLLDTTDIQGEEFAKVIVQKLKDNKQMGLQPYPEILVVSRSPSLNLLQNKSM
notes: as for B2
B6: RIP2CARD (431-540) E453A, HIS-MBP tag cleaved (domain or fragment, human, UniProt O43353 431-540, looked up)
chain: LQPGIAQQWIQSKREDIVNQMTAACLNQSLDALLSRDLIMKEDYELVSTKPTRTSKVRQLLDTTDIQGEEFAKVIVQKLKDNKQMGLQPYPEILVVSRSPSLNLLQNKSM
notes: as for B2
B7: RIP2CARD (residues 435-540), MBP tag cleaved (domain or fragment, human, UniProt O43353 435-540, looked up)
chain: IAQQWIQSKREDIVNQMTEACLNQSLDALLSRDLIMKEDYELVSTKPTRTSKVRQLLDTTDIQGEEFAKVIVQKLKDNKQMGLQPYPEILVVSRSPSLNLLQNKSM
notes: RIP2 CARD domain, human, residues 435-540; Isotope-labelled for solid-state NMR; also called RIP2CARD VV; RIP2CARD filament; source: E. coli Rosetta 2 (BL21 star for NMR), purified (amylose resin), MBP cleaved by TEV; not shown: MBP, N-terminal, cleaved

Key:
[1] = biological target: the molecule itself; test: cryo-EM structure; helical reconstruction of NOD2CARDS^s-RIP2CARD filaments, filament ends left out; 3.94 Å
[2] = biological target: the molecule itself; test: negative-stain EM; amylose eluate (with co-purified NOD2CARDS^s) at 2.5 mg ml^−1, polymerization stimulated by proteases for 4 h at room temperature
[3] = biological target: the molecule itself; test: negative-stain EM; void-volume fraction of size-exclusion chromatography after cleavage of the MBP tag by TEV
[4] = biological target: T1, NOD2ΔLRR (residues 1-619), MBP tag cleaved (human, UniProt Q9HC29 1-619); test: immuno-gold labelling with negative-stain EM; purified NOD2ΔLRR mixed with a 50-fold excess of MBP-RIP2CARD, polymerization induced by TEV; rabbit anti-NOD2 and gold-conjugated anti-rabbit; conditions: both partners purified
T1 construct: NOD2 (nucleotide oligomerization domain 2), human, CARDS and NOD without the LRR domain, residues 1-619; A less aggregated SEC fraction was used; the protein forms soluble aggregates; also called MBP-NOD2ΔLRR before cleavage; source: sf21 insect cells (baculovirus), purified (amylose resin, TEV cleavage, size exclusion chromatography); not shown: MBP, N-terminal, cleaved
T1 sequence (Q9HC29 1-619, stated change not applied): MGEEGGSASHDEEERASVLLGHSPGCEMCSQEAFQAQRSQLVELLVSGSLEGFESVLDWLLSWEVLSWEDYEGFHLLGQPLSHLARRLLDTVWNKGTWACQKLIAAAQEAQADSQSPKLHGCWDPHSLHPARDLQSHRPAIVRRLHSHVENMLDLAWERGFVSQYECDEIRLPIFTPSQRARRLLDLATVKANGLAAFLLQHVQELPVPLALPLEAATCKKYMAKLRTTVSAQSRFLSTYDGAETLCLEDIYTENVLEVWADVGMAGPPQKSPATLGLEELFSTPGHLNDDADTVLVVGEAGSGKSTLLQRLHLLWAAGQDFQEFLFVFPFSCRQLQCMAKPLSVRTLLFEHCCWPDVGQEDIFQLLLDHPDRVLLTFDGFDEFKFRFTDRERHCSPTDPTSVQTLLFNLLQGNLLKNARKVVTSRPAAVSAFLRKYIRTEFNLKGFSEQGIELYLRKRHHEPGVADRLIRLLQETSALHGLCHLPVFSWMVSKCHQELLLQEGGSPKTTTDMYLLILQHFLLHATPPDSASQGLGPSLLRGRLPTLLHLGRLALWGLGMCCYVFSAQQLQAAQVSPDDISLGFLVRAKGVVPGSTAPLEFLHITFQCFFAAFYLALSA

Binder | binding result [2] | further results
B1 |  | binding result [1]: binds
B2 | binds | 
B3 | binds | 
B4 | binds | 
B5 | binds | 
B6 | binds | 
B7 |  | binding result [3]: binds; binding result [4]: binds
